Laboratory results from PMC5902328.

Substrate: N
Test: purified protein
Conditions: aminating direction, co-substrate Fru6P, saturating, no GlcNAc6P activator, 37 °C

B1: Amuc-NagB (Akkermansia muciniphila ATCC BAA-835) (protein)
chain: MIGVESSRVMRAAPRKAVGRVEASVPWDFSRKYAAVHHSGTISVENARKRSKIGRVMKVETFETPQDAAKALAGEVAELIRTRAAEGKNVVLGLATGATPLPFYAELVRMHKEEGLSFANVISFNLDEYSGLDRDHPESYWYFMHTNLFNHIDIKPENINLPSGTVKDDEIAAHCAAYEQKIKDCGGIDLQILGIGRTGHIGFNEPGSDDTTVTRQVHLDELTRSDAAPAFGGIENVPTTAITMGVATIMGAREVALMAWGEKKASIVKKAVQGPVTVDVAASYLQKHPNAKFLLDKGAASLL
B1 gave a Km of 41.3 ± 12.8 mM.
